# According to patent publication US20180355060A1 (published 2018):
# Legend:
# [1] = target: T1, human transglutaminase type 2 (TG2) (human, UniProt P21980 1-687); test: cell-based or functional assay
# T1 sequence: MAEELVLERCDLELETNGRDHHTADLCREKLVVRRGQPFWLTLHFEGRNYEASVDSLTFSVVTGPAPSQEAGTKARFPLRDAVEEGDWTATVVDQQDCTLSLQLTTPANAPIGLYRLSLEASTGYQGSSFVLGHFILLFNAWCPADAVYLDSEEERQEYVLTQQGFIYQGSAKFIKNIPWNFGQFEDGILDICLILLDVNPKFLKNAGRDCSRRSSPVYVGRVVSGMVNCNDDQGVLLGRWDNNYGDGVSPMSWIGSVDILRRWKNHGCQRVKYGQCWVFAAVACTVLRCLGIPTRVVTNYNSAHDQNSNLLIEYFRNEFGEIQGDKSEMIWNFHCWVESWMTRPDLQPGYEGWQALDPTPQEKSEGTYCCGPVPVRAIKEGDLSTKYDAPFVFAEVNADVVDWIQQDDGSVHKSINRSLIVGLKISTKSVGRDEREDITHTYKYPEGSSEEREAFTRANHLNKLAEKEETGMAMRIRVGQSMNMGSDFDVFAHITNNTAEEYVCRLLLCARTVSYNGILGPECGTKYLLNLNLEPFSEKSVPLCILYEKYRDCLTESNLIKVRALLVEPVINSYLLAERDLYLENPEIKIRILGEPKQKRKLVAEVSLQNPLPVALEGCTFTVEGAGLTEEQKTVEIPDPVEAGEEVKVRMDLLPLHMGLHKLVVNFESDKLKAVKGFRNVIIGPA
# [2] = target: T1, human transglutaminase type 2 (TG2); test: SPR (Biacore T200), antibody captured on anti-human IgG1 Fc chip, human TG2 injected; Ca2+ condition not marked in this row
# Protocol: (§1) The method employed to determine the affinity of the anti-TG2 antibodies involved the capture of the chimeric or humanised antibodies on a MAH coated CM5 chip, followed by the injection of a series of TG2 samples in running buffer. The running buffer was 1× HBS-P+ containing 1 mM CaCl₂, or 1×HBS-EP+ for calcium-free experiments. Antibody capture was carried out for a contact time of 120 seconds at a flow rate of 10 μl/min resulting in the capture of approximately 40-80 RU. TG2 was injected over the immobilised antibody at concentrations ranging from 25 nM to 400 nM with a contact time up to 600 seconds at a flow rate of 30 μl/min. Dissociation of TG2 was typically measured for up to 5400 seconds (1.5 hours). Regeneration of the chip was then performed using 3 M MgCl₂, for a contact time of 60 seconds at a flow rate of […], followed by a 300s stabilisation period before the next sample. For each of human and cynomolgus monkey TG2, at least 5 injections at a variety of concentrations were performed in at least two separate experiments.
# (§2) Kinetic data were exported from the Biacore T200 Evaluation Software and analysed using GraphPad Prism, where the association phases and dissociation phases were analysed separately using a one phase association model and one-phase exponential decay model respectively. Association rates (kₒₙ) were calculated for each curve individually, and dissociation rates (koff) values from the long dissociation phase data collected. Where koff values were calculated to be <1×10⁻⁵ s⁻¹, values were set at 1×10⁻⁵ for analysis, as rates slower than this could not be estimated accurately. Values for kₒₙ and koff are presented in the tables below as the mean of the individual calculated values for each antibody for each TG2 species from multiple concentrations +/−1 standard deviation. KD values are calculated as mean koff/mean kₒₙ.
# cynomolgus monkey TG2 [3] = target: T2, cynomolgus monkey TG2 (cynomolgus monkey, UniProt A0A2K5VXI8 2-687); test: SPR (Biacore T200), antibody captured on anti-human IgG1 Fc chip, cynomolgus TG2 injected; Ca2+ condition not marked in this row
# T2 construct: Recombinant, from Trenzyme; also called cynomogulus monkey TG2; cyano TG2
# T2 sequence: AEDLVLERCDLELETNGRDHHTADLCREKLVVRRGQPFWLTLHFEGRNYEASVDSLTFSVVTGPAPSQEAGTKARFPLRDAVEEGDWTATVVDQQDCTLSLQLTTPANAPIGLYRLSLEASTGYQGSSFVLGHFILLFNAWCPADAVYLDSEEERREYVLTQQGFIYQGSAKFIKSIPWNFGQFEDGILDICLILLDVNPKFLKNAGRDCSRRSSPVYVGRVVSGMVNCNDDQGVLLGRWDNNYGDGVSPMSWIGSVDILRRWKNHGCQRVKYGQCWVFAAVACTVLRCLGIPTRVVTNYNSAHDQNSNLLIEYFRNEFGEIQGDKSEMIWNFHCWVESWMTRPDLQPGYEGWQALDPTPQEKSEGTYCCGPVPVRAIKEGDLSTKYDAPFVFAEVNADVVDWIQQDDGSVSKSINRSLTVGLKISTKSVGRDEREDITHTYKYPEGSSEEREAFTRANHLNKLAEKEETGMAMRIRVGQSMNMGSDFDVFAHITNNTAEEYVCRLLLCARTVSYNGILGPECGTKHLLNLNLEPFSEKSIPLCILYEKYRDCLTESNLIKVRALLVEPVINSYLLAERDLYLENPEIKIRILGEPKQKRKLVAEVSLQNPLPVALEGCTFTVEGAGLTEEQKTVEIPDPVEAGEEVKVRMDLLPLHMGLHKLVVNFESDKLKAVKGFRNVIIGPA
# Protocol: as §1, §2
# [4] = target: T1, human transglutaminase type 2 (TG2); test: SPR (Biacore T200), antibody captured on anti-human IgG1 Fc chip, human TG2 injected; +Ca2+
# Protocol: (§3) FIG. 45: Human TG2 binding to cAB003 immobilised antibody by Biacore. The association phases of human TG2 injections over the cAB003-coated biosensor at 25, 50, 100 and 200 nM, including in duplicate at 50 nM, are shown on the left. From the same experiment, two long dissociation phases were collected, as shown on the right.
# as §1, with “For each of human and cynomolgus monkey TG2, at least 5 injections at a variety of concentrations were performed in at least two separate experiments.” left out
# as §2
# [5] = target: T1, human transglutaminase type 2 (TG2); test: SPR (Biacore T200), antibody captured on anti-human IgG1 Fc chip, human TG2 injected; -Ca2+
# Protocol: as §3
# as §1, with “For each of human and cynomolgus monkey TG2, at least 5 injections at a variety of concentrations were performed in at least two separate experiments.” left out
# as §2
# cynomolgus monkey TG2 [6] = target: T2, cynomolgus monkey TG2; test: SPR (Biacore T200), antibody captured on anti-human IgG1 Fc chip, cynomolgus TG2 injected; +Ca2+
# Protocol: as §1, §2
# cynomolgus monkey TG2 [7] = target: T2, cynomolgus monkey TG2; test: SPR (Biacore T200), antibody captured on anti-human IgG1 Fc chip, cynomolgus TG2 injected; -Ca2+
# Protocol: as §1, §2
# rat TG2 [8] = target: T3, rat TG2 (rat, UniProt Q9WVJ6 1-686); test: western blot and ELISA
# T3 sequence: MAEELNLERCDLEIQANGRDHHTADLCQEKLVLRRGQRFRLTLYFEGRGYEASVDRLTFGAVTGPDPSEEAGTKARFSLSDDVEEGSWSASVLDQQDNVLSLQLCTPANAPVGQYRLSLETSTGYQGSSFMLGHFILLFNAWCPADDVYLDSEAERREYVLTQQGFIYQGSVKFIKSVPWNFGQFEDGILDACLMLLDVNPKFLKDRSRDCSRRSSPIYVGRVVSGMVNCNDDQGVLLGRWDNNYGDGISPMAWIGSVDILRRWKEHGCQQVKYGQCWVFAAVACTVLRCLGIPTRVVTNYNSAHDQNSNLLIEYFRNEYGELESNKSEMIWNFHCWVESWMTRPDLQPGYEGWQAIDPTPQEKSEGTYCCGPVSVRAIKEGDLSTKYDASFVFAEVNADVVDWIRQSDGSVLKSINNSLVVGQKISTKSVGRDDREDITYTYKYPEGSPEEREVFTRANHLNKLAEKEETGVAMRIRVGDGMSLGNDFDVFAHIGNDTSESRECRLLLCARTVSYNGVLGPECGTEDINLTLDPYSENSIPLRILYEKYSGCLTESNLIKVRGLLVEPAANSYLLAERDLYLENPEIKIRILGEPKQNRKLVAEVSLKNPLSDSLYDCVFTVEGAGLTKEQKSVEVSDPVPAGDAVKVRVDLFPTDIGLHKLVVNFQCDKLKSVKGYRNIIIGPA
# rat TG2 [9] = target: T3, rat TG2; test: cell-based or functional assay
binder,measurement,setting,value
"hBB001AA humanised BB7 antibody (BB7 RHA with BB7 RKA) (antibody, V domains shown, The name AA is read as heavy version RHA + kappa version RKA; also called hBB01AA) VH: EVQLLESGGGLVQPGGSLRLSCAASGIIFSSSAMSWVRQAPGKGLEWVATISSGGRSTYYPDSVKGRFTVSRDSSKNTLYLQMNSLRAEDTAVYYCAKLISPYWGQGTLVTVSS VL: DIKMTQSPSSLSASVGDRVTITCKASQDINSYLTWFQQKPGKAPKTLIYLTNRLMDGVPSRFSGSGSGQEFLLTISSLQPEDFATYYCLQYVDFPYTFGQGTKVEIK","IC50, inhibition of extracellular TG2 activity of HK2 cells (biotin cadaverine incorporation into fibronectin)",[1],19800 pM
same,kon,[2],270000 M⁻¹ s⁻¹
same,Kd,cynomolgus monkey TG2 [3],< 30 pM
same,koff,cynomolgus monkey TG2 [3],< 1e-05 s⁻¹
same,kon,cynomolgus monkey TG2 [3],300000 M⁻¹ s⁻¹
"hAB004 (hAB001AE) humanised AB1 antibody, heavy chain version RHA with light chain version RKE (antibody, V domains shown, Captured by anti-human IgG1 Fc in SPR) VH: EVQLLESGGGLVQPGGSLRLSCAASGFTFSSSAMSWVRQAPGKGLEWVSTISVGGGKTYYPDSVKGRFTISRDNSKNTLYLQMNSLRAEDTAVYYCAKLISLYWGQGTLVTVSS VL: EIVLTQSPSSLSASVGDRVTITCKASQDINSYLTWYQQKPGKAPKLLIYRTNRLFDGVPSRFSGSGSGTDFFFTISSLQPEDFGTYYCLQYDDFPYTFGGGTKLEIK",Kd,cynomolgus monkey TG2 [3],11 pM
"hBB001BB humanised BB7 antibody (BB7 RHB with BB7 RKB) (antibody, V domains shown, The name BB is read as heavy version RHB + kappa version RKB) VH: EVQLLESGGGLVQPGGSLRLSCAASGFTFSSSAMSWVRQAPGKGLEWVSTISSGGRSTYYPDSVKGRFTISRDNSKNTLYLQMNSLRAEDTAVYYCAKLISPYWGQGTLVTVSS VL: DIQMTQSPSSLSASVGDRVTITCKASQDINSYLTWFQQKPGKAPKSLIYLTNRLMDGVPSRFSGSGSGTDFFLTISSLQPEDFATYYCLQYVDFPYTFGQGTKVEIK","IC50, inhibition of extracellular TG2 activity of HK2 cells (biotin cadaverine incorporation into fibronectin)",[1],4900 pM
same,Kd,[2],< 40 pM
same,koff,[2],< 1e-05 s⁻¹
same,kon,[2],240000 M⁻¹ s⁻¹
same,Kd,cynomolgus monkey TG2 [3],140 pM
same,koff,cynomolgus monkey TG2 [3],3.7e-05 s⁻¹
same,kon,cynomolgus monkey TG2 [3],270000 M⁻¹ s⁻¹
"cAB003 chimeric anti-TG2 antibody (murine AB1 variable regions, human IgG1 and human kappa) (antibody, V domains shown, The versions differ only in the first 7 residues; also called chimeric AB1) VH: EVQLVESGGGLVKPGGSLKLSCAASGFTLSSSAMSWVRQTPDRRLEWVATISVGGGKTYYPDSVKGRFTISRDNAKNTLYLQMNSLRSEDTAMYYCAKLISLYWGQGTTLTVSS VL: DIKMTQSPSSMYASLGERVTITCKASQDINSYLTWFQQKPGKSPKTLIYRTNRLFDGVPSRFSGSGSGQDFFLTISSLEYEDMGIYYCLQYDDFPYTFGGGTKLEIK",Kd,[4],< 60 pM
same,koff,[4],< 1e-05 s⁻¹
same,kon,[4],170000 M⁻¹ s⁻¹
same,Kd,[5],< 100 pM
same,koff,[5],< 1e-05 s⁻¹
same,kon,[5],86000 M⁻¹ s⁻¹
same,Kd,cynomolgus monkey TG2 [6],50 pM
same,koff,cynomolgus monkey TG2 [6],1.2e-05 s⁻¹
same,kon,cynomolgus monkey TG2 [6],240000 M⁻¹ s⁻¹
same,Kd,cynomolgus monkey TG2 [7],93 pM
same,koff,cynomolgus monkey TG2 [7],1.3e-05 s⁻¹
same,kon,cynomolgus monkey TG2 [7],140000 M⁻¹ s⁻¹
"BB7 murine monoclonal anti-TG2 antibody (antibody, V domains shown, Mouse IgG from hybridoma (gamma-1 primer MHCG1, kappa); also called mBB001) VH: AVQLVESGGGLVKPGGSLKLSCAASGIIFSSSAMSWVRQTPEKRLEWVATISSGGRSTYYPDSVKGRFTVSRDSAKNTLYLQMDSLRSEDTAIYYCAKLISPYWGQGTTLTVSS VL: AIKMTQSPSSMYASLGERVIITCKASQDINSYLTWFQQKPGKSPKTLIYLTNRLMDGVPSRFSGSGSGQEFLLTISGLEHEDMGIYYCLQYVDFPYTFGGGTKLEIK",binding result,rat TG2 [8],binds
"DH2 murine monoclonal anti-TG2 antibody (antibody, V domains shown) VH: not shown VL: QIVLTQSPAIMSASPGEKVTMTCSASSSVSYMYWYQQKPGSSPRLLIYDTSNLASGVPVRFSGSGSGTSYSLTISRMEAEDAATFYCQQWSSSPLTFGAGTKLELK","IC50, 3H-putrescine incorporation TG activity assay",rat TG2 [9],0.000223 mg/ml of IgG (amount required to inhibit 1 ng of TG2)
"DD9 murine monoclonal anti-TG2 antibody (antibody, V domains shown, Mouse IgG from hybridoma (gamma-2a primer MHCG2A, kappa); also called mDD9001) VH: not shown VL: QIVLTQSPAIMSASPGEKVTMTCSASSSVDYMYWYQQKPGSSPRLLIYDTSNLASGVPVRFSGSGSGTSYSLTISRMGAEDAATYYCQQWNSSPLTFGAGTKLELK",binding result,rat TG2 [8],binds
